Reference: PMC7897471

How the values were obtained:
[1] = target: [Alexa488]-QnrB1 (QnrB1-His, N-terminally labelled with AlexaFluor 488); assay: fluorescence polarisation; fluorescence anisotropy; 50 nM Alexa488-labelled QnrB1 mixed with gyrase subunit(s) in EMSA buffer (30 mM Tris-Cl pH 7.5, 75 mM KCl, 6% glycerol, 2 mM MgCl2, 1 mM DTT), 10 min at room temperature; one site specific binding fit
[2] = target: [Alexa488]-QnrB1 (QnrB1-His, N-terminally labelled with AlexaFluor 488); assay: fluorescence polarisation; as a1 but subunits with 1 mM ADPNP, incubated for an additional 1 h at room temperature with addition of 2 mM MgCl2
[3] = target: E. coli DNA gyrase A2B2 complex (E. coli) (UniProt P0AES4); assay: native gel or EMSA; 20 nM 147 bp pBR322 dsDNA fragment with 0.2 μM reconstituted gyrase in EMSA buffer, QnrB1 added as indicated; 30 min at 25°C; 6% polyacrylamide gel in TBM; IC50 = QnrB1 concentration that halves the bound DNA
[4] = target: GyrB 43 kDa domain (GyrB43), N-terminal ATPase-transducer domain of E. coli GyrB (E. coli)
[5] = target: E. coli DNA gyrase A2B2 complex (E. coli) (UniProt P0AES4)
[6] = target: E. coli DNA gyrase subunit B, full-length untagged (E. coli) (UniProt P0AES6)
[7] = target: GyrB 43 kDa domain (GyrB43), N-terminal ATPase-transducer domain of E. coli GyrB (E. coli); remark: listed apart in the source
[8] = target: Gyrase (Escherichia coli) (UniProt P0AES4); conditions: cited from earlier work

Row | Substance | Kd [1] [µM] | Kd [2] [µM] | also measured
1 | E. coli DNA gyrase A2B2 complex (from UniProt P0AES4 1-875; P0AES6 1-804) | 0.08 | 1.78 | –
2 | E. coli DNA gyrase subunit A, full-length untagged (from UniProt P0AES4 1-875) (natural protein) | 3.9 | – | –
3 | E. coli DNA gyrase subunit B, full-length untagged (from UniProt P0AES6 1-804) (natural protein) | 2.53 | 3.8 | –
4 | GyrB 43 kDa domain (GyrB43), N-terminal ATPase-transducer domain of E. coli GyrB (domain or fragment) | 1.77 | 12.2 | –
5 | QnrB1 with a C-terminal 6xHis tag (wild type, unlabelled) (natural protein) | – | – | IC50 [3]: 10.9 µM; ATPase reaction rate of 4 μM GyrB43 with 5 μM QnrB1 against no QnrB1 [4]: 17 fold; DNA-independent ATP hydrolysis rate of 50 nM gyrase (A2B2) with 5 μM QnrB1 [5]: 3 fold; ATPase activity of the full-length GyrB subunit with QnrB1 (not shown) [6]: < 2 fold; QnrB1-dependent activation of GyrB43 ATPase activity (4 μM GyrB43, 1 mM ATP), Km for QnrB1 of a Michaelis-Menten fit [7]: 3.61 µM
6 | YacG (from UniProt C4ZRJ5) | – | – | Ki [8]: 0.035 µM
